In patent publication US20250333496A1 (Novo Nordisk, published 2025):
Read-outs that look alike come from different tables or passages of the source.

How the values were obtained:
[1] = target: T1, human IL-6 (mature hIL-6) (human, UniProt P05231 30-212); test: cell-based or functional assay
[2] = target: T1, human IL-6 (mature hIL-6); test: cell-based or functional assay; remark: listed apart in the source
[3] = target: T1, human IL-6 (mature hIL-6); test: SPR (format not stated)
[4] = target: T1, human IL-6 (mature hIL-6); test: cell-based or functional assay; remark: listed apart in the source
[5] = target: T1, human IL-6 (mature hIL-6); test: cell-based or functional assay; remark: listed apart in the source
[6] = target: T1, human IL-6 (mature hIL-6); test: cell-based or functional assay; remark: listed apart in the source
[7] = target: T2, recombinant human HPC4-tagged IL-6 (human, UniProt P05231 30-212); test: SPR, HPC4-IL-6 captured on anti-HPC4 antibody, VHH injected, 25 C, 1:1 model
T2 construct: captured on an anti-HPC4 antibody in SPR; also called HPC4-human IL6
T2 sequence (P05231 other isoform, or with tags, fused parts or gaps limits assumed): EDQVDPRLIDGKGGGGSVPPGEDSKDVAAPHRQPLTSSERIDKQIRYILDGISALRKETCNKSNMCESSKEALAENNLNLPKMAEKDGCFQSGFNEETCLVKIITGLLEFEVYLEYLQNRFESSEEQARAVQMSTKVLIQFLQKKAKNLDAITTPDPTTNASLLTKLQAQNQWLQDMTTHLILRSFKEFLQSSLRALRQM
Protocol: Binding of purified anti-IL-6 VHHs to recombinant human HPC4-tagged IL-6 (SEQ ID NO: 98) was probed by Surface Plasmon Resonance (SPR).
IL-6 was captured at a flow rate of 10 μL/min for 30 seconds.
Subsequently, concentration series of VHH polypeptides according to Table 33 were injected at a flow rate of 50 μL/min for 200 seconds to allow for binding to […] followed by 600 seconds running buffer (10 mM HEPES, 150 mM NaCl, 5 mM CaCl₂, 0.05% (v/v) Surfactant P20, 1 mg/mL bovine serum albumin, pH 7.4) injection allowing dissociation from IL-6. The running buffer was also used for dilution of anti-IL-6 VHHs and IL-6. Regeneration of the chip was achieved using a regeneration buffer consisting of 50 mM EDTA in running buffer without CaCl₂, 30 seconds contact time, and a 30 μL/min flow rate applied twice to the surface. The binding data were collected at 25° C. at either a Biacore instrument (Cytiva AB, Uppsala) or a Bruker SPR32 (Bruker Daltonics). Data were analysed according to a 1:1 model using either BiaEvaluation or Biacore Insight Evaluation (Cytiva AB, Uppsala) or Bruker Analyser (Bruker Daltonics).

T1 sequence (P05231 30-212): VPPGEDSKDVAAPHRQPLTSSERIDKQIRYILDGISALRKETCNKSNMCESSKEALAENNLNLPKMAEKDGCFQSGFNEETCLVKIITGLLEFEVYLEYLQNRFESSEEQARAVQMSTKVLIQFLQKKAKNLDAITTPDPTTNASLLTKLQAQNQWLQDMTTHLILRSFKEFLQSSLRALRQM

B1: anti-IL-6 VHH building block 7G05 SIA comparator (VHH)
VHH: QVKLEESGGGLVQPGGSLRLSCAASGSISRFNIMGWYRQAPGKQRELVADITNGGTTMYADSVKGRFTISRDNTKNTVYLQMNSLKPEDTAVYYCHTYYPTTGFDDWGQGAQVTVSS
IC50 (nM), STAT3-luc reporter gene assay [1]: 0.115 nM | Relative IC50 to Polypeptide_29 [1]: 2.6 fold | Relative IC50 to Reference Anti-IL6 Fab [1]: 2.9 fold

B2: Polypeptide_6 (VHH)
VHH: QVQLQESGGGLVQAGGSLRLSCTTSGRTFSDYAMAWFRQAPGKDREFVADIGTNSENTWYAESVKGRFTISRDNTKNTIYLQMNSLKPEDTAVYYCAADSYGVGGGKQEYYDSWGQGAQVTVSS
notes: VHH_2.6 with C-terminal His tag extension E1; also called [VHH_2.6]-E1
Reporter gene-assay [pM] [2]: 73.4 pM | Kd [3]: 1.52 nM

B3: Polypeptide_19 (VHH)
VHH: QLQLVESGGGWVQPGGSLKLSCTTSGRTFSSYAVGWFRQAPGKEREFVADIGENADNTWYAHSVKGRFTISRDNAKNTVYLQMNSLKPEDTAVYYCAADSYGVGGGAQGYYDSWGQGTQVTVSS
notes: VHH_1.11 with C-terminal His tag extension E1; also called [VHH_1.11]-E1
Reporter gene-assay [pM] [2]: 40.6 pM | IC50 (nM), STAT3-luc reporter gene assay [4]: 0.185 nM | Relative IC50 to Reference Polypeptide_29 [4]: 5.4 fold | IC 50 (nM), reporter gene assay, 0% HSA [5]: 0.117 nM | IC 50 (nM), reporter gene assay, 1% HSA [5]: 0.064 nM | Kd [3]: 0.001 nM

B4: Polypeptide_29 (VHH)
VHH: EVQLVESGGGLVQPGGSLKLSCTTSGRRFSEYAVGWFRQAPGKEREFVADIGEQAENTWYAESVLGRFTISRDDAKNTVYLEMDGLKPEDTAVYYCAADKYGVGGNAQGYYDSWGQGTQVTVSS
notes: VHH_1.6 with C-terminal His tag extension E1; also called [VHH_1.6]-E1
IC50 (nM), STAT3-luc reporter gene assay [4]: 0.034 nM | Relative IC50 to Reference Polypeptide_29 [4]: 1 fold | IC50 (nM), STAT3-luc reporter gene assay [1]: 0.044 nM | Relative IC50 to Polypeptide_29 [1]: 1 fold | Relative IC50 to Reference Anti-IL6 Fab [1]: 1.1 fold | IC50 (nM) mean, STAT3-luc reporter gene assay [6]: 0.039 nM | Relative IC50 to Polypeptide_29 [6]: 1 fold | IC 50 (nM), reporter gene assay, 0% HSA [5]: 0.035 nM | Kd [7]: 0.0039 nM | koff [7]: 8.69e-05 s⁻¹ | kon [7]: 2.23e+07 M⁻¹ s⁻¹

B5: Compound 18 (VHH)
VHH: EVQLVESGGGLVQPGGSLKLSCTTSGRRFSEYAVGWFRQAPGKEREFVADIGEQAENTWYAESVLGRFTISRDDAKNTVYLEMDGLKPEDTAVYYCAADKYGVGGNAQGYYDSWGQGTQVTVSS
modifications: Chem. 26 (C18 fatty acid substituent) on Cys in position 4 and on Cys in position 6 of the extension (SEQ ID NO: 162)
IC50 (nM) mean, STAT3-luc reporter gene assay [6]: 0.043 nM | Relative IC50 to Polypeptide_29 [6]: 1.2 fold

B6: Compound 14 (VHH)
VHH: EVQLVESGGGLVQPGGSLKLSCTTSGRRFSEYAVGWFRQAPGKEREFVADIGEQAENTWYAESVLGRFTISRDDAKNTVYLEMDGLKPEDTAVYYCAADKYGVGGNAQGYYDSWGQGTQVTVSS
modifications: Chem. 24 (C16 fatty acid substituent) on Cys in position 4 of the extension (SEQ ID NO: 161)
IC50 (nM) mean, STAT3-luc reporter gene assay [6]: 0.041 nM | Relative IC50 to Polypeptide_29 [6]: 1.1 fold

B7: Compound 15 (VHH)
VHH: EVQLVESGGGLVQPGGSLKLSCTTSGRRFSEYAVGWFRQAPGKEREFVADIGEQAENTWYAESVLGRFTISRDDAKNTVYLEMDGLKPEDTAVYYCAADKYGVGGNAQGYYDSWGQGTQVTVSS
modifications: Chem. 26 (C18 fatty acid substituent) on Cys in position 4 of the extension (SEQ ID NO: 161)
IC50 (nM) mean, STAT3-luc reporter gene assay [6]: 0.046 nM | Relative IC50 to Polypeptide_29 [6]: 1.3 fold

B8: Compound 19 (VHH)
VHH: EVQLVESGGGLVQPGGSLKLSCTTSGRRFSEYAVGWFRQAPGKEREFVADIGEQAENTWYAESVLGRFTISRDDAKNTVYLEMDGLKPEDTAVYYCAADKYGVGGNAQGYYDSWGQGTQVTVSS
modifications: Chem. 27 (C20 fatty acid substituent) on Cys in position 4 and on Cys in position 6 of the extension (SEQ ID NO: 162)
IC50 (nM) mean, STAT3-luc reporter gene assay [6]: 0.042 nM | Relative IC50 to Polypeptide_29 [6]: 1.1 fold

B9: Compound 16 (VHH)
VHH: EVQLVESGGGLVQPGGSLKLSCTTSGRRFSEYAVGWFRQAPGKEREFVADIGEQAENTWYAESVLGRFTISRDDAKNTVYLEMDGLKPEDTAVYYCAADKYGVGGNAQGYYDSWGQGTQVTVSS
modifications: Chem. 27 (C20 fatty acid substituent) on Cys in position 4 of the extension (SEQ ID NO: 161)
IC50 (nM) mean, STAT3-luc reporter gene assay [6]: 0.054 nM | Relative IC50 to Polypeptide_29 [6]: 1.6 fold

B10: Compound 17 (VHH)
VHH: EVQLVESGGGLVQPGGSLKLSCTTSGRRFSEYAVGWFRQAPGKEREFVADIGEQAENTWYAESVLGRFTISRDDAKNTVYLEMDGLKPEDTAVYYCAADKYGVGGNAQGYYDSWGQGTQVTVSS
modifications: Chem. 24 (C16 fatty acid substituent) on Cys in position 4 and on Cys in position 6 of the extension (SEQ ID NO: 162)
IC50 (nM) mean, STAT3-luc reporter gene assay [6]: 0.04 nM | Relative IC50 to Polypeptide_29 [6]: 1 fold

B11: Polypeptide_18 (VHH)
VHH: EVQLVESGGGLVQPGGSLRLSCAASGFTFSNYWMYWVRQAPGKGLEWVSGINTGGSTPDYADSVKGRFAISRDNAKNTLYLQMNSLRPEDTAVYYCAADTPRVFRLDHYSPLGQGTQVTVSS
notes: VHH_1.16 with C-terminal His tag extension E1; also called [VHH_1.16]-E1
Reporter gene-assay [pM] [2]: 18.5 pM | IC 50 (nM), reporter gene assay, 0% HSA [5]: 0.02 nM | IC 50 (nM), reporter gene assay, 1% HSA [5]: 0.02 nM | Kd [3]: 0.705 nM

B12: Polypeptide_34 (VHH)
VHH: EVQLVESGGGLVQAGGSLRLSCTASGGTFSEYAMAWFRQAPGKEREFVTDIGESGGTWYADSVKGRFTISRDNAKNTVYLQMNSLRPEDTAVYYCAADSYGVGGGAERYYDSWGQGTQVTVSS
notes: VHH_1.8 with C-terminal His tag extension E1; also called [VHH_1.8]-E1
Reporter gene-assay [pM] [2]: 43.6 pM | IC 50 (nM), reporter gene assay, 0% HSA [5]: 0.066 nM | IC 50 (nM), reporter gene assay, 1% HSA [5]: 0.046 nM | Kd [3]: ~0.0136 nM | Kd [7]: 0.0136 nM | kon [7]: 2.88e+07 M⁻¹ s⁻¹

B13: Polypeptide_13 (VHH)
VHH: EVQLVESGGGLVQAGGPLRLSCTVSGRTFSTYAMGWFRQAPGKEREFVADINWNSDNIWYADSVKGRFTISRDNAKNVMYLQMNSLKPEDTAVYYCAADSYGVGGGKEEYYDSWGQGTQVTVSS
notes: VHH_2.13 with C-terminal His tag extension E1; also called [VHH_2.13]-E1
Reporter gene-assay [pM] [2]: 80.9 pM | Kd [3]: 0.001 nM

B14: Polypeptide_4 (VHH)
VHH: QVQLQESGGGLVQAGGSLRLSCTVSGRTFSTYAMGWFRQAPGKEREFVADINWNSDNLWYADSVKGRFTISRDNAKNTMYLQMNSLKPEDTAVYYCAVDSYGVGGGKPEYYDSWGQGTQVTVSS
notes: VHH_2.4 with C-terminal His tag extension E1; also called [VHH_2.4]-E1
Reporter gene-assay [pM] [2]: 198 pM | Kd [3]: 1.46 nM

B15: Polypeptide_17 (VHH)
VHH: QVQLVESGGGLVQAGGSLRLSCTVSGRTFSTYAMGWFRQAPGKEREFVADINWNSDNIWYADSVKGRFTISRDNAKNVMYLQMNSLKPEDTAVYYCAADSYGVGGGKEEYYDSWGQGTQVTVSS
notes: VHH_2.17 with C-terminal His tag extension E1; also called [VHH_2.17]-E1
Reporter gene-assay [pM] [2]: 84.1 pM | Kd [3]: 0.257 nM

B16: Reference Anti-IL6 Fab (Fab, V domains shown)
VH: EVQLVESGGGLVQPGGSLRLSCAASGFTISSNYMIWVRQAPGKGLEWVSDLYYYAGDTYYADSVKGRFTMSRDISKNTVYLQMNSLRAEDTAVYYCARWADDHPPWIDLWGRGTLVTVSS
VL: DIQMTQSPSTLSASVGDRVTITCRASQGISSWLAWYQQKPGKAPKVLIYKASTLESGVPSRFSGSGSGTEFTLTISSLQPDDFATYYCQQSWLGGSFGQGTKLEIKR
IC50 (nM), STAT3-luc reporter gene assay [1]: 0.039 nM | Relative IC50 to Polypeptide_29 [1]: 0.9 fold | Relative IC50 to Reference Anti-IL6 Fab [1]: 1 fold | IC 50 (nM), reporter gene assay, 0% HSA [5]: 0.026 nM | IC 50 (nM), reporter gene assay, 1% HSA [5]: 0.017 nM
